± gives the uncertainty stated by the source.

In the supplement of paper PMC12042874 one finds amyloid nucleation score data, which are given here for 142 substances.

This data set can be described thus: amyloid nucleation score (Sup35N fusion, yeast selection) (log enrichment); library NNK2; higher = more nucleation; inactive = no reads after selection. A digest of the protocol: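 After 24 hours of induction with 100 μM copper sulfate, psi-negative yeast expressing peptides of 20 random codons fused to Sup35N were grown for 7 days at 30°C on medium lacking adenine and uracil. Input and output plasmid inserts were sequenced with Illumina, and sequences with under 100 input reads were discarded. Scores for nucleation are the DiMSum log enrichment of output over input reads, centred on the mode score of non-aggregating sequences.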
Substance RMEVEFFVPW displayed an amyloid nucleation score of 2.9 ± 0.11.
RMFRFRRHSKHLEKLSSRFL showed an amyloid nucleation score of -0.222 ± 0.49.
For RMLFVHPVGYGCEAAVGSSW, the amyloid nucleation score was found to be 1.09 ± 0.23.
In turn, RMLLIGIRCLIMSWHMLHN registered an amyloid nucleation score of -0.029 ± 0.37.
On to RMLSRSRWLTI, for which the amyloid nucleation score was -0.169 ± 0.34.
Turning to RMLYVFSFTHNKVVIFARTE, the amyloid nucleation score is -1.11 ± 0.76.
RMRFYWWDVSMLYTCSYSDF gave an amyloid nucleation score of 1.04 ± 0.11.
In the case of RMVSYY, the amyloid nucleation score was -0.474 ± 0.56.
The substance RNGFAIRITANHYTQLVYDL came in with an amyloid nucleation score of 3.82 ± 0.094.
RNHRRSWMPSFRTKLNGGWF had an amyloid nucleation score of 3.58 ± 0.14.
Consider RNIIFTWGLCC, for which the amyloid nucleation score turned out to be 5.913 ± 0.035.
The substance RNSIYCTND returned an amyloid nucleation score of -0.679 ± 0.47.
In the case of RNSSL, the amyloid nucleation score is 0.495 ± 0.48.
The substance RNVSNRPNAQIRKSVRCCWG returned an amyloid nucleation score of 0.388 ± 0.42.
Consider RPGYNQMDFDWRLLIDVFDG, for which the amyloid nucleation score was -0.133 ± 1.
RPLPSFPNNRSERSNTSF registered an amyloid nucleation score of 0.851 ± 0.57.
To RPLSAEACPYVCTVSWDGLW belongs 1.02 ± 0.14; to RPWLVY, 0.026 ± 1.1.
RQSFVVDNNELCKFTCDYSC came in with an amyloid nucleation score of 7.376 ± 0.043.
On to RQSNPR, for which the amyloid nucleation score turned out to be 1.53 ± 0.31.
Take RQTSLKRL: the amyloid nucleation score was -0.159 ± 1.
Consider RQVGNHSTYGLFNVQTRLRL, for which the amyloid nucleation score was 2.52 ± 0.079.
RRAWGFLVMRVGTDPMMTGI came in with an amyloid nucleation score of 0.196 ± 0.37.
For the substance RRDSVKCVSARGRISLLVSR, the amyloid nucleation score was 2.8 ± 0.056.
Regarding RRFLNGFFRVQRLRYRHPFI, the amyloid nucleation score is -0.005 ± 0.63.
RRGHVL: the amyloid nucleation score was 1.82 ± 0.21.
RRGKFEAANSWGD showed an amyloid nucleation score of 0.792 ± 0.53.
In the case of RRGQEGYRVEWA, the amyloid nucleation score was found to be 1.22 ± 0.59.
To RRIGFDAPDVSRYVALLYWD belongs -0.106 ± 0.32; to RRIVGFFANDRTLIYLVGYI, -0.902 ± 0.49; to RRLAGSTAEKMYMF, “inactive”.
Take RRLFRLVVYFLPNR: the amyloid nucleation score result was “inactive”.
The substance RRLKLRINMVFLEYGFKSKF registered an amyloid nucleation score of 3.8 ± 0.046.
RRNFGGNLNWIDIVYEHVCL registered an amyloid nucleation score of 0.09 ± 0.33.
The substance RRRHLGFGKSVEVE registered an amyloid nucleation score of -0.549 ± 0.34.
To RRSGGPGEDGGSYERQFTSR belongs 0.95 ± 0.32; to RRSYFFLVTFTLDVRDMVCF, 1.77 ± 0.18; to RRTSYLCWFAGYFGLI, -0.295 ± 0.45.
To RRVNFMKVTFNLKVILFRWS belongs -1.52 ± 1.1; to RRWYYFIEWRKYYQNRTVDQ, -0.321 ± 0.8.
As to RRYGKW, the amyloid nucleation score is 1.67 ± 0.41.
To RSERPFAWVMALTFTCAGGL belongs 3.47 ± 0.11; to RSFSSPRIILYVKLLVSLYG, -0.783 ± 0.25; to RSGVL, 4.24 ± 0.066.
To RSHATFRSSSLIPGVEV belongs 0.409 ± 0.23; to RSHVVH, 1.18 ± 0.68.
To RSILEM belongs -0.302 ± 0.61; to RSKHQKRSALCYFESGVTAV, 0.663 ± 0.37.
On to RSMDPCRLLSELIRRT, for which the amyloid nucleation score came out at 0.938 ± 0.32.
The substance RSQGLWMHAGPSFSVGYPFG came in with an amyloid nucleation score of 3.9 ± 0.085.
As to RSSRW, the amyloid nucleation score worked out at 2.82 ± 0.1.
To RSSSVVEARGESST belongs 7.106 ± 0.041; to RSSTLNRRKNKGGSTNVDCL, 0.355 ± 0.56; to RSTQLNSGPTANK, 1.21 ± 0.41.
To RSVPYSLCSMQLCTFHFEHS belongs 8.384 ± 0.028; to RTALLP, 1.58 ± 0.52.
To RTDFMHTIFLPCRGHGMSWF belongs 0.91 ± 0.35; to RTDRSYRGLKPVVLVTQWGG, -0.106 ± 0.63.
As to RTIYFFLSWHFGSFIKFLKL, the amyloid nucleation score entry was “inactive”.
To RTLWATNVRLKNLHVFIMVM belongs 0.147 ± 0.8; to RTPFEDKVSIGDDSRSRADL, 0.414 ± 0.41; to RTRSSYGVVLKIRKWCPEVA, 1.18 ± 0.61.
The substance RTSRVKVR showed an amyloid nucleation score of 4.13 ± 0.074.
To RTVGLSHIIICN belongs 0.089 ± 0.5.
Turning to RTVYRFNVRI, the amyloid nucleation score was 0.291 ± 0.27.
The substance RTVYYHQFPGSGFVYVSGFS showed an amyloid nucleation score of -0.324 ± 1.1.
As to RTWAFFKAVWGIVDRTTLSN, the amyloid nucleation score was -1.13 ± 0.62.
RVDLVDSSICADANLLG: the amyloid nucleation score came to 1.17 ± 0.26.
To RVFKDTRRIG belongs -0.545 ± 1.
Consider RVFNLLYVLNWNAKSLSWMS, for which the amyloid nucleation score turned out to be 4.32 ± 0.11.
In turn, RVGACRMVRHYVGTWVQQLL gave an amyloid nucleation score of 0.246 ± 1.1.
To RVGTLSWTRAFVFLGYGMVQ belongs -0.044 ± 0.48; to RVIWRQWYNTL, 1.61 ± 0.19; to RVIWSPSRDRSSWFTESEYH, -0.278 ± 0.36.
In turn, RVLKLCRLCHFKYLTSEAGV returned an amyloid nucleation score of -0.309 ± 0.34.
In turn, RVQVPLGRAGTRISRSGKIW registered an amyloid nucleation score of 0.805 ± 0.43.
To RVRSSLVDLASVGSILLTAR belongs -0.264 ± 0.41; to RVSTNGFVSQPMRWYVIVDS, -0.142 ± 0.25; to RVTYDFFILWC, 4.465 ± 0.044.
To RVYLFLELIRALSFRTNHCG belongs -0.245 ± 0.76; to RVYMWLWIGWCRIG, 0.58 ± 0.51; to RWAFHCKSRDVFNMRKL, “inactive”.
RWITSAY gave an amyloid nucleation score of 0.709 ± 0.62.
Take RWQCLVEHMRSANLGVRRGP: the amyloid nucleation score worked out at 0.074 ± 0.41.
Turning to RWSGPGCTLSTGMWTFIPQV, the amyloid nucleation score is -0.145 ± 0.76.
In turn, RWTWNSEVRNLRIFASYPGC had an amyloid nucleation score of -0.418 ± 1.1.
To RWYRRCLYT belongs 0.162 ± 0.37.
As for RYAQGRRWSYRLNRCLVGRC, the amyloid nucleation score is 1.81 ± 0.27.
To RYAYLFGPGRCWMFLSVFPY belongs 4.2 ± 0.069; to RYKWFNKWYTCWYSRFKFYV, -1.13 ± 0.26; to RYLETYHSHACVSFTERN, 0.606 ± 0.45.
As for RYMGGIWKSIRTS, the amyloid nucleation score was 0.061 ± 0.21.
As for RYNPCD, the amyloid nucleation score came out at 0.334 ± 0.44.
Consider SACLFLDME, for which the amyloid nucleation score came out at 0.664 ± 0.41.
To SACVLCFYQIFFYRVDCTGG belongs 6.414 ± 0.052.
On to SACVWVNICTSASNGDPG, for which the amyloid nucleation score is 7.445 ± 0.039.
To SAGYKLDSCTVYWGLACDSR belongs -0.366 ± 0.79.
As to SAIDWDFQTIFLLSEFQYGF, the amyloid nucleation score was -1.44 ± 1.1.
SANHMKTDA returned an amyloid nucleation score of 0.436 ± 0.8.
To SAPYLIMLRLDSCACGDVF belongs 2.01 ± 0.083.
SARIGISRFCPHAVSPVITK: the amyloid nucleation score result is “inactive”.
As for SARPELCMPIIRLCGSREDQ, the amyloid nucleation score was -0.056 ± 0.22.
Regarding SARVSWGCWHFAMYSRCIRQ, the amyloid nucleation score entry was “inactive”.
In turn, SASMHWYSSRCDTL gave an amyloid nucleation score of 0.275 ± 0.29.
The substance SATARKNILVSLGSVALFDR had an amyloid nucleation score of -0.82 ± 0.54.
The substance SAVNHTYVGD gave an amyloid nucleation score of 0.122 ± 1.1.
SAYVVLIEFVLNKVVGTLLR: the amyloid nucleation score was -0.634 ± 0.63.
To SCCFSMGGPVNVVQSSRMVR belongs -0.781 ± 0.55.
Regarding SCCNL, the amyloid nucleation score was -0.11 ± 0.19.
To SCGYFITKKEH belongs -0.679 ± 0.3; to SCHWNVTRGRWNTKHNLRPK, 1.06 ± 0.4; to SCIMLIVPMINSAYAVLLWR, -0.771 ± 0.62.
To SCKKCMSYVVVVNIVRHICM belongs 1.86 ± 0.11; to SCLLVEQLP, 0.864 ± 0.26; to SCPNYTVSIWIYMPFFSWLR, 2.81 ± 0.08.
For SCRGDKQERKPIHYVRHIWY, the amyloid nucleation score is -0.798 ± 0.24.
As to SCRLLDSFDPMSRGKSSQRR, the amyloid nucleation score is -0.003 ± 1.1.
With SCSERLSMWLRED, the amyloid nucleation score worked out at 4.62 ± 0.047.
SCSHYTVECKGAWGFCACGH gave an amyloid nucleation score of 0.085 ± 0.36.
SCSIKSSTVVEDPF had an amyloid nucleation score of 0.049 ± 0.76.
As to SCSSCLL, the amyloid nucleation score was -0.183 ± 1.
Substance SCSWCMLVPRGGVGVPKG gave an amyloid nucleation score of 0.335 ± 0.22.
For the substance SCTHLDW, the amyloid nucleation score result is “inactive”.
In turn, SCVINM yielded an amyloid nucleation score of 1.55 ± 0.11.
On to SCWRRMSSITPG, for which the amyloid nucleation score turned out to be 1.68 ± 0.47.
Turning to SDCGHAEVVCAGNHGGTSYP, the amyloid nucleation score turned out to be 0.326 ± 0.27.
To SDCRWNCVSMEWIDPTHEDK belongs -0.518 ± 0.2; to SDFIMTLSERVVGASLNSCD, “inactive”.
Substance SDGEISGEGY registered an amyloid nucleation score of -0.368 ± 1.1.
As for SDICRREMHNTAIFLALF, the amyloid nucleation score is 1.56 ± 0.1.
With SDLGCLRYRTKGGAVGVDGV, the amyloid nucleation score turned out to be 0.653 ± 0.21.
The substance SDMLLVISWFSFVKNK displayed an amyloid nucleation score of 4.05 ± 0.073.
To SDRMELWKNESRLYIGMAVR belongs 0.451 ± 0.49; to SESDSTLRSTIDSRLCGS, -0.53 ± 0.55.
Take SESHICGV: the amyloid nucleation score was -1.62 ± 0.62.
On to SESVL, for which the amyloid nucleation score was -1 ± 0.76.
SEVLNVFA yielded an amyloid nucleation score of -1.14 ± 0.34.
To SFDFLSLLSDRCLVLDVSPN belongs 0.761 ± 0.46; to SFDGGRDGRLMYIGRMLEEL, -0.067 ± 0.62.
Turning to SFEPFETLEREVPPPLTWPT, the amyloid nucleation score was 1.99 ± 0.2.
SFFFMKSWSGRPPIQLGV came in with an amyloid nucleation score of -0.113 ± 0.65.
Regarding SFFFPWCVTGLRVSHTTAKF, the amyloid nucleation score was -0.237 ± 0.63.
